# According to patent US20240270857A1 (CHIA TAI TIANQING PHARMACEUTICAL GROUP, published 2024):
# Where a chain is given by its changes, count along the chain named.
# T1: human IL-36R overexpressed on 293T-hIL36R-NFκB cells (human, UniProt Q9HB29 20-575)
# T1 sequence: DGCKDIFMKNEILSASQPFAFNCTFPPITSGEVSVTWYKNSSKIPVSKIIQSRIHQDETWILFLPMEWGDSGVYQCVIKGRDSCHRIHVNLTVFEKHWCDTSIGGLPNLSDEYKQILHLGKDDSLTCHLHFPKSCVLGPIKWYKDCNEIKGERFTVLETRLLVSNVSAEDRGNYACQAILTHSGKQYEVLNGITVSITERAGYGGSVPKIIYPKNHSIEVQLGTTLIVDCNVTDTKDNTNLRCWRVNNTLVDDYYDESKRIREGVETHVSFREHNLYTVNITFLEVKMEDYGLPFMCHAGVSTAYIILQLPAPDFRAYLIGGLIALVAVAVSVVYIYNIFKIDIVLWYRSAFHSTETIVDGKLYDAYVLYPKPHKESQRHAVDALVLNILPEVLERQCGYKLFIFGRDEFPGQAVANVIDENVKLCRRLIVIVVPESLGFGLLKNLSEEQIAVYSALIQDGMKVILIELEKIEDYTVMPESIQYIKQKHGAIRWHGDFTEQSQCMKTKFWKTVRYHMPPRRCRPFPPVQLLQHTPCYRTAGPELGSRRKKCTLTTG
# T2: IL-36R naturally expressed on OVCAR8 cells and on normal human epidermal keratinocytes (NHK cells) (human, UniProt Q9HB29 20-575)
# T2 sequence (looked up): T1 sequence
# T3: Human IL-1Rrp2/IL-1R6 protein, His Tag (ACROBiosystems, IL2-H52H6) (human, UniProt Q9HB29 20-335)
# T3 construct: Bought protein; the soluble protein is likely only the extracellular part; also called hIL-36R; human IL36R antigen; not shown: His tag
# T3 sequence: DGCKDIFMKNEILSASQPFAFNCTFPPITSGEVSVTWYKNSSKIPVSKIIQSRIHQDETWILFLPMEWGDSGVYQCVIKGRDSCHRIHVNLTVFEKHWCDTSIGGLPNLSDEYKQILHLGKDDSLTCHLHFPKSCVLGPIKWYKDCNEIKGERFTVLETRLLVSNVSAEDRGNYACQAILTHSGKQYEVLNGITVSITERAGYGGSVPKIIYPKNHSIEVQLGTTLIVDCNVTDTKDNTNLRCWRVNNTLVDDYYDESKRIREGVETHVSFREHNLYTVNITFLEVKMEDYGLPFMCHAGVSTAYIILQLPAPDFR
# B1: hz72C1-1.2 (antibody, human IgG4 S228P, kappa)
# heavy: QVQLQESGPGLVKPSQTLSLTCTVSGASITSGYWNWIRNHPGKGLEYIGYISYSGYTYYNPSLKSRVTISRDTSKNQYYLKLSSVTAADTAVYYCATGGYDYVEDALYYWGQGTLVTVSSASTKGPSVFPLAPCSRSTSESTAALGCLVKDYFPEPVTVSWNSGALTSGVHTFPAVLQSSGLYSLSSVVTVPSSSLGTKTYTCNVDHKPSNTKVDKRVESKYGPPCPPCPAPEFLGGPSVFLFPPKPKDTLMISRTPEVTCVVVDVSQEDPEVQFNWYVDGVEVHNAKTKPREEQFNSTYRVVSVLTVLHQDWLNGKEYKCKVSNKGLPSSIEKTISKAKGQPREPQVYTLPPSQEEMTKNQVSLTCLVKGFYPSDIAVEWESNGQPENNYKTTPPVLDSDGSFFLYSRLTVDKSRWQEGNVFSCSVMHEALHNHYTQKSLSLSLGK
# light: DIQMTQSPSSLSASVGDRVTITCRASSNVRYMYWYQQKPGKAPKLWIYLTSNLASGVPSRFSGSGSGTSYTLTISSLQPEDFATYYCQQFTTSPYTFGQGTKLEIKRTVAAPSVFIFPPSDEQLKSGTASVVCLLNNFYPREAKVQWKVDNALQSGNSQESVTEQDSKDSTYSLSSTLTLSKADYEKHKVYACEVTHQGLSSPVTKSFNRGEC
# notes: Humanized, human IgG4 / kappa
# B2: hz84C4-1.1 (antibody, human IgG4 S228P, kappa, V domains shown)
# VH: QVQLVQSGAEVKKPGASVKVSCKASGYFFTSYWMNWVRQAPGQGLEWMGMIHPYDSETRYAQKFQGRVTMTVDKSTSTVYMELSSLRSEDTAVYYCASSTTAFAYWGQGTLVTVSS
# VL: DIQMTQSPSSLSASVGDRVTITCRASQDIGNALNWYQQKPGKAPKRLIYATSSLDPGVPSRFSGSRSGTDFTLTISSLQPEDFATYYCLQYASSPYTFGQGTKVEIKR
# notes: Humanized, human IgG4 / kappa
# B3: hz84C4-1.5 (antibody, human IgG4 S228P, kappa, V domains shown)
# VH: B2 VH with A24V, R38N, Y60L, Q65K
# VL: B2 VL
# notes: Humanized, human IgG4 / kappa
# B4: hz84C4-1.4 (antibody, human IgG4 S228P, kappa, V domains shown)
# VH: B2 VH with F28Y, Y60L, Q65K
# VL: B2 VL
# notes: Humanized, human IgG4 / kappa
# B5: hz84C4-2.1 (antibody, human IgG4 S228P, kappa, V domains shown)
# VH: B2 VH
# VL: B2 VL with Y36L, F71Y
# notes: Humanized, human IgG4 / kappa
# B6: hz84C4-1.2 (antibody, human IgG4 S228P, kappa, V domains shown)
# VH: B2 VH with M50Y
# VL: B2 VL
# notes: Humanized, human IgG4 / kappa
# B7: hz84C4-2.4 (antibody, human IgG4 S228P, kappa, V domains shown)
# VH: B2 VH with F28Y, Y60L, Q65K
# VL: B2 VL with Y36L, F71Y
# notes: Humanized, human IgG4 / kappa
# B8: hz84C4-1.3 (antibody, human IgG4 S228P, kappa, V domains shown)
# VH: B2 VH with H52Y
# VL: B2 VL
# notes: Humanized, human IgG4 / kappa
# B9: hz84C4-2.2 (antibody, human IgG4 S228P, kappa, V domains shown)
# VH: B2 VH with M50Y
# VL: B2 VL with Y36L, F71Y
# notes: Humanized, human IgG4 / kappa
# B10: hz84C4-2.5 (antibody, human IgG4 S228P, kappa, V domains shown)
# VH: B2 VH with A24V, R38N, Y60L, Q65K
# VL: B2 VL with Y36L, F71Y
# notes: Humanized, human IgG4 / kappa
# B11: hz84C4-2.3 (antibody, human IgG4 S228P, kappa, V domains shown)
# VH: B2 VH with H52Y
# VL: B2 VL with Y36L, F71Y
# notes: Humanized, human IgG4 / kappa
# Biological target: T1, human IL-36R overexpressed on …
# Test: cell-based or functional assay
IC50 (M); hIL36α; NFκB-luciferase [M],IC50 (M); hIL36αβγ; NFκB-luciferase [M],IC50 (M); hIL36β; NFκB-luciferase [M],IC50 (M); hIL36γ; NFκB-luciferase [M],Maximum inhibition rate %; hIL36α; NFκB-luciferase [%],Maximum inhibition rate %; hIL36αβγ; NFκB-luciferase [%],Maximum inhibition rate %; hIL36β; NFκB-luciferase [%],Maximum inhibition rate %; hIL36γ; NFκB-luciferase [%],Binder
1.04e-08,~4.15e-08,5.07e-09,2.18e-08,101,86.7,96.9,98.4,B1

# Biological target: T2, IL-36R naturally expressed on OVCAR8 …
# Test: cell-based or functional assay
IC50 (M); hIL36α; IL-8 production [M],IC50 (M); hIL36αβγ; IL-8 production [M],IC50 (M); hIL36β; IL-8 production [M],IC50 (M); hIL36γ; IL-8 production [M],Maximum inhibition rate %; hIL36α; IL-8 production [%],Maximum inhibition rate %; hIL36αβγ; IL-8 production [%],Maximum inhibition rate %; hIL36β; IL-8 production [%],Maximum inhibition rate %; hIL36γ; IL-8 production [%],Binder
6.21e-11,8.82e-11,2.61e-11,1.38e-11,98.9,97.9,98.2,98.2,B1

# Biological target: T2, IL-36R naturally expressed on OVCAR8 …
# Test: cell-based or functional assay
# Remark: another data set of the same source
IC50 (M); hIL36α; IL-8 production [M],IC50 (M); hIL36αβγ; IL-8 production [M],IC50 (M); hIL36β; IL-8 production [M],IC50 (M); hIL36γ; IL-8 production [M],Maximum inhibition rate %; hIL36α; IL-8 production [%],Maximum inhibition rate %; hIL36αβγ; IL-8 production [%],Maximum inhibition rate %; hIL36β; IL-8 production [%],Maximum inhibition rate %; hIL36γ; IL-8 production [%],IC50; hIL36γ; IL-8 production [pM],Binder
6.38e-12,6.51e-12,7.61e-12,4.77e-12,99.7,99.9,99.3,99.6,–,B2
8.48e-12,7.24e-12,1.06e-11,5.29e-12,99.5,99.3,99.2,99.6,–,B3
1.42e-11,1.12e-11,1.46e-11,7.75e-12,99.5,98.9,98.5,99.4,–,B4
1.09e-11,3.66e-12,5.7e-12,6.45e-12,99.9,99.9,99.3,99.6,–,B5
8.5e-12,7.75e-12,1.6e-12,8.99e-12,99.1,99.2,98.9,99.5,–,B6
7.52e-12,2.58e-12,7.24e-12,5.15e-12,99.5,98.8,99.1,99.3,–,B7
–,5.33e-12,–,~6.46e-12,20.6,44.2,21.8,59.5,–,B8
1.19e-11,1.31e-11,8.59e-12,8.61e-12,99.2,99.2,98.5,98.7,–,B9
6.45e-12,4.01e-12,7.06e-12,6.62e-12,100,99.2,99.4,99.7,–,B10
~6.47e-12,~4.34e-12,3.42e-12,–,28.4,40.6,18.6,41.5,6.2,B11

# Biological target: T3, Human IL-1Rrp2/IL-1R6 protein, His Tag …
# Test: ELISA, plate coated with human IL-1Rrp2/IL-1R6 His Tag, HRP-protein A/G, OD450
# Method: (§1) The binding activity of anti-IL-36R antibodies to IL-36R was analyzed by ELISA using human IL-1Rrp2/IL-1R6 protein, His Tag (ACROBiosystems, IL2-H52H6) and CynoIL36R-ECD mFc (for detection of chimeric and humanized antibodies), and hIL36R-ECD hFc and CynoIL36R-ECD hFc protein (for detection of hybridoma antibodies) as antigens. A 96-well plate (Costar, 9018) was coated with 2 μg/mL antigen at 100 μL/well and incubated overnight at 4° C. After the 96-well plate was washed with a washing buffer (PBS containing 0.05% v/v Tween 20), a blocking buffer (PBS containing 2% bovine serum albumin) was added for blocking at 37° C. for 2 h. After the 96-well plate was washed with the washing buffer, 100 μL of the gradient diluted anti-IL-36R antibody of the present disclosure or the reference antibody BI655130 (the initial concentration of the antibody was 66 nM, 4-fold gradient dilution) was added to each well, and the plate was incubated at room temperature for 1 h. After the 96-well plate was washed with the washing buffer, 100 μL of horseradish peroxidase-conjugated recombinant protein A/G (TheroScientific, 32490) was added to each well, and the plate was incubated at room temperature for 1 h. After the 96-well plate was washed with the washing buffer, 100 μL of a TMB solution (Thermo, 00-4201-56) was added to each well, and the plate was incubated at room temperature for 2 min. Finally, 100 μL of a stop solution (2 N H₂SO₄) was added to each well to stop the reaction. Absorbance was read at 450 nm using a microplate reader (PE, Envision), the resulting data was analyzed using GraphPad Prism, and EC₅₀ was calculated. Binding EC₅₀ of the chimeric anti-IL-36R antibodies to hIL-36R in an ELISA assay is shown in FIG. 1. and binding EC₅₀ of the chimeric anti-IL-36R antibodies to CynoIL-36R in an ELISA assay is shown in FIG. 2. The binding of BI655130 is shown as a control, and the binding of IgG4 is shown as a negative control.
row,EC50 [pM],Binder
1,5020,B1

# Biological target: T3, Human IL-1Rrp2/IL-1R6 protein, His Tag …
# Test: as above
# Remark: another data set of the same source
# Method: as §1
row,EC50 [pM],Binder
1,509,B2
2,624,B3
3,684,B4
4,558,B5
5,531,B6
6,453,B7
7,3410,B8
8,533,B9
9,497,B10
10,2250,B11
